The text below walks through data of the nanobody polyreactivity screen of Harvey et al. (2022).

A short description of the data set: yeast display, Sf9 membrane polyspecificity reagent, FACS + sequencing; frameworks hold sequencing errors. Put shortly:
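Nanobodies from a synthetic yeast display library (Saccharomyces cerevisiae BJ5465), induced 36–48 hours with galactose, were stained 1 hour at 4 °C with 10% biotinylated, detergent-solubilized Sf9 membrane reagent, enriched on streptavidin microbeads, then FACS-sorted. Anti-HA (expression) and streptavidin (reagent binding) fluorescence set low and high (top ~1%) gates. Polyreactivity labels come from the gate of origin. Genes were colony-PCR amplified, MiSeq 2 × 250 sequenced and filtered by CDR length.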
For “QVQLVESGGGLVQAGGSLLLSCAASGRTFNYIAMGWYRQAPGKERELVAAISQGGGSTYYADSVKGRFTISRDNAKNTVYLQMNSLKPEVTAVSYFAADTWWYGKYDYWGQGTQVTVSS”, the “polyreactivity (PSR sort gate)” value is recorded as “low polyreactivity”.

For the sequence “QVQLVESGGGLVQAGGSLLLSCAASGSIFGGNAMGWSRQAPGKVRELVAAITSSGGSTYYADSVKGRFTISRDNAKNTVYLQMNSLKPEDTAVYYCNKLSWRKYLGYEYWGQGTQVTVSS”, the “polyreactivity (PSR sort gate)” value was “high polyreactivity”.

In the case of “QVQLVESGGGLVQAGGSLLLSCAASGSIFSAYAMGWDRQAPGKERQLVAGISKRGGSTYYADSVKGRFTISRDNAKNTVYLQMNSLKPEDTAVYYCNAARYPYARAVTYHYPSYGYWGQGTQVTVSS”, the “polyreactivity (PSR sort gate)” value is listed as “high polyreactivity”.

On to “QVQLVESGGGLVQAGGSLLLSCAASGSTFTQYAMGWYRQAPGKERELVAAINSRGDSTYYADSVKGRFTISRDNAKNTVYLQMNSLKPEDTAVYYCAKDPFPWALFDYWGQGTQVTVSS”, for which the “polyreactivity (PSR sort gate)” value was “low polyreactivity”.

On to “QVQLVESGGGLVQAGGSLLLSCAASGSTLFLYAMGWYRQAPGKERELVAGITYSGSTYADSVKGRFTISRDNAKNTVYFQMNSLKPEDTAVYYCAKDGYWNEEYSVGMDYWGQGTQVTVSS”, for which the “polyreactivity (PSR sort gate)” value is reported as “low polyreactivity”.

Consider “QVQLVESGGGLVQAGGSLLLSCAASGYTFGFYAMGWYTQAPGKERELVAAISASGGSTYYADSVKGRFTISRDNAKNTVYLQMNSVKPEETAVYYCAAVYSVYYHTWVTTRDYYYWGQGTQVTVSS”, for which the “polyreactivity (PSR sort gate)” value is listed as “high polyreactivity”.

Consider “QVQLVESGGGLVQAGGSLLLSCAASGYTLEYNAMGWNRQAPGKEREFVARIRWSGSSTYYADSVKGRCTISRDNAKNTVYLQMNSLKPEDTAVYYCNADDGYYVGLSSAIYDYWGQGTQVTVSS”, for which the “polyreactivity (PSR sort gate)” value is reported as “high polyreactivity”.

Turning to “QVQLVESGGGLVQAGGSLLLSCAASRSISYAYAMGWYRQAHGKERELVAAISWSDGSTYYADSVKGRFTISRDNAKNTVYLQMNSLKPEDTAVYYCAADYGWHYGDWYDYWGQGTQVTVSS”, the “polyreactivity (PSR sort gate)” value is given as “low polyreactivity”.

“QVQLVESGGGLVQAGGSLLLSCAAYGSISPYYTMGLYRQAPGKERELVAAICSGGRTYYADSVKGRFTISRDNAKNTVYLHMNSLNPEDTSVYYCAVEVAWYVHWGDMDYWGQGTQVTVSS”: the “polyreactivity (PSR sort gate)” value is recorded as “low polyreactivity”.

With “QVQLVESGGGLVQAGGSLLLSCGASGFIFYAYAMGWYRQAPVKDRELVAVMSSSGGSTYYADSVTGRFSISRAHAKTTVYLEWNSLKPDDTGGYYCAAETGTGETRYYRYWDYYYWGQGTQVTVSS”, the “polyreactivity (PSR sort gate)” value is given as “high polyreactivity”.

For “QVQLVESGGGLVQAGGSLLLTCAASGRIISLYAMGWYRQAPGKERELVAGISGGTIKYYADSLKGRFTISRDNAKNTVYLQMNSLKAEDTAVYYCAAKPTYRGYGYGSWGHGTQVTVSS”, the “polyreactivity (PSR sort gate)” value was “low polyreactivity”.

Turning to “QVQLVESGGGLVQAGGSLPLSCAASGLTLYGNAMGWYRQAPAKEREMVADISLSGGRTFYADSVKGRFTITRDNAKNTVYLQMNSLKPEDTAVYYCAAVCRTGWYYEYYHWGQGSQVTVSS”, the “polyreactivity (PSR sort gate)” value is recorded as “low polyreactivity”.

“QVQLVESGGGLVQAGGSLPLSCAASGRTYVSYVMGRYRQAPGKEREFVAAISRSGGNTYYADSVKGRFTISRDTAKNTVYLQMNSLNPEDTAVYYCYVLLQRVYGTAPSFDYWGQGTQVTVSS”: the “polyreactivity (PSR sort gate)” value was “high polyreactivity”.

“QVQLVESGGGLVQAGGSLPLSCAASGSIFGINAMGWYRQAPGKERELVAAISSRGASTYYADSVKGRFTISRDNAKNTVYLQMNSLKPEDTAVYYCAADAFYWGQGTQVTVSS”: the “polyreactivity (PSR sort gate)” value is recorded as “low polyreactivity”.

Consider “QVQLVESGGGLVQAGGSLPLSCAASGSIFKTYAMGWYREAPGKERELVAAIRDSGDRTYYADSVKGRFTISRDNAKNTVYLQMNSLKPEDTAVYYCNARWQEALKYDYWGQGTQVTVSS”, for which the “polyreactivity (PSR sort gate)” value is on record as “low polyreactivity”.

With “QVQLVESGGGLVQAGGSLPLSCAASGSIFMTYAIGWYRQAPGKERELVAAIRDSGDRTYYADSVKGRFTISRDNAKNTVYLQINSLKPEDTAVYYCNARWQEALKYDYWGQGTQVTVSS”, the “polyreactivity (PSR sort gate)” value was “low polyreactivity”.

For “QVQLVESGGGLVQAGGSLPLSCAASGSNLRRYDMGLYRQAPGKERELVAAISSSGGSTYYADSVKGRFTISRDNAKNTVYLQMNSLKPEDTAVYYCAADIYDDDRSEYTEYDYWGQGTHVTVSS”, the “polyreactivity (PSR sort gate)” value is “low polyreactivity”.

Consider “QVQLVESGGGLVQAGGSLPLSCAASGSTFDRNVMGWYRQAPGKERELVAAISRVSSTNYADSVKGRFTISRDNAKNTVNLQMNSLKPEDTAVYSCAADGAGSIMNYWGQGTQVTVSS”, for which the “polyreactivity (PSR sort gate)” value is “low polyreactivity”.

Turning to “QVQLVESGGGLVQAGGSLPLSCAASGSTFLQYAMGWYRQAPGKERELVAAIRGRGDSTYYADSVNGRFTISRDNEMNTVYLQMNSLKPVDSAVYSCAARGQGSRGMYYWGQGTKVTVSS”, the “polyreactivity (PSR sort gate)” value is on record as “low polyreactivity”.

As for “QVQLVESGGGLVQAGGSLPLSSAASGRTFYPNAMGWYRQAPGNEREFVARISDSGGSTYYADSVKGRFTISRDNAKNTVYLQMNSLKPEDTAVYYCAADYGDPRVKEYDYWGQGTQVTVSS”, the “polyreactivity (PSR sort gate)” value was “low polyreactivity”.

“QVQLVESGGGLVQAGGSLRESCAASGRIFYGNAMGCYRQAPVKERELVAAISSGTSTNYADSVKGRFTISRDNAKNTVYLEMNSLKPEDTGVYYCAAGSYSRYLYSLYFDFDYWGQGTQVTVSS”: the “polyreactivity (PSR sort gate)” value is “low polyreactivity”.

As for “QVQLVESGGGLVQAGGSLRFICAASGRIFRRYLMGWYRQAPGKERELVARFRIRDSNTYYADSVKGRFTISRDNAKNTVYLQMNSLKPEDTAVYNCAVVANYVYSKYDYWGQGTQVTVSS”, the “polyreactivity (PSR sort gate)” value was “high polyreactivity”.

For the sequence “QVQLVESGGGLVQAGGSLRFRCAASGRIFSYVMGWYRQAPGKERELVAAISTGGGNTYYADSVKGRFTISRDNAKNTVYLQMNSLKPEDTAVYYCAADYYAGTFDYWGQGTQVTVSS”, the “polyreactivity (PSR sort gate)” value is recorded as “high polyreactivity”.

Take “QVQLVESGGGLVQAGGSLRFSCAASGFIFGDYAMGWDRQAPGTEREFVATISRSVGSRSYADSVKGRFTISRDNAKKPVYLQMNSLKPEDTAVYYCAAVTWGEGFDYWGQGTQVTVSA”: the “polyreactivity (PSR sort gate)” value was “low polyreactivity”.

“QVQLVESGGGLVQAGGSLRFSCAASGFIFRYYAMGWYRQAPGKERELVAAIDYSGGSTIYADSVKGRFTISRDNAKNTVYLQMNSLKPEDTAVYYCNAEYTWHRGYDYWGQGTQVTVSS”: the “polyreactivity (PSR sort gate)” value is recorded as “low polyreactivity”.

“QVQLVESGGGLVQAGGSLRFSCAASGFIFVRYAMGWYRQAPGKERELVAAISGSGGRTYYADSVKGRFTISRDNAKNTVYLQMTSLKPEDTAVYYCNGTSYTYGYLPYDYWGQGTQVTVSS”: the “polyreactivity (PSR sort gate)” value was “high polyreactivity”.

Consider “QVQLVESGGGLVQAGGSLRFSCAASGGFFHGNTMGWYRQAPGKERELVAAISNSGGSTYYADSVKGRFPISRDNAKNTVYLQMNSLKPEDTAVDSCARVGYKLYQYKYDYWGQGTQVTVSS”, for which the “polyreactivity (PSR sort gate)” value is recorded as “low polyreactivity”.

On to “QVQLVESGGGLVQAGGSLRFSCAASGGNFGYYAMGWYRQAPGKERELVARISSSGGSTYYADSVKGRFTISRDNAKNTVYLQMNSLKPEDTAVYYCNTASNRYPGWRAEFDYWGQGTQVTVSS”, for which the “polyreactivity (PSR sort gate)” value is recorded as “low polyreactivity”.

For the sequence “QVQLVESGGGLVQAGGSLRFSCAASGGTFYVYAMGGYRQATGKERELVAAISTSGGSTYYADSVKGRFTISRDNAKNTVYLQMNSLKPEDTAVYYCAARRVSFSGHPRYGYWGQGTQVTVSS”, the “polyreactivity (PSR sort gate)” value was “high polyreactivity”.

Take “QVQLVESGGGLVQAGGSLRFSCAASGITFKGYAMGWYRQAPGKERELVAAINSRGGTYADSVKGRFTISRDNAKNTVYLQMNSLKPEDTAVYYCAVTAVRPLPLDSGYDYWGQGTQVTVSS”: the “polyreactivity (PSR sort gate)” value was “low polyreactivity”.
